From patent US20180273622A1 (APTEVO RESEARCH AND DEVELOPMENT, published 2018)

Experiments:
human CD3 [1] = biological target: T1, human CD3 (human, UniProt P07766 23-207; P09693 23-182; P04234 22-171; P20963 22-164); test: flow cytometry on Jurkat T-cells, anti-human IgG detection
T1 construct: whole, on cells; It was presented on the CD3+ Jurkat T-cell line, on a Jurkat subclone with higher CD3 expression, or on human T-cells; also called CD3 on Jurkat T-cells; CD3 on human T-cells
Procedure: Binding studies were performed by standard flow cytometry-based staining procedures using the CD3⁺ Jurkat T-cell line. All labeling and washes were performed in U-bottom 96-well plates in saline buffer with 3% BSA and 2 mM EDTA. Jurkat cells were plated at 200,000 cells per well and incubated with a range of 0.1 nM to 200 nM concentrations of test molecules in 50 μL volume/well, for 30 minutes on ice. Cells were washed three times then incubated for another 30 minutes on ice with fluorescently-labeled minimum cross reactive secondary polyclonal antibody, F(ab′)² goat anti-human IgG, (Jackson ImmunoResearch Laboratories) and the viability dye 7-AAD. The cells were then washed twice, and the samples acquired in a BD LSRII flow cytometer. The sample files were analyzed using FlowJo software; the mean fluorescence intensity (MFI) of the live population of Jurkat cells in each well was calculated after gating on live cells (forward vs. side scatter, then 7-AAD cells).

human CD3 [2] = biological target: T1, human CD3; test: flow cytometry on a Jurkat subclone with higher CD3 expression (FIG. 2)

T1 sequence (P07766 23-207, chain 1 of 4): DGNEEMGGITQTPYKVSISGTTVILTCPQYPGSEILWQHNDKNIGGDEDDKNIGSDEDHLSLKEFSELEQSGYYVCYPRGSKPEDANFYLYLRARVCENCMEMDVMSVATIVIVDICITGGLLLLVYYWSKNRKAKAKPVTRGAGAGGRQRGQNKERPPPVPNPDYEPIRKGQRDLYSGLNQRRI
T1 sequence (P09693 23-182, chain 2 of 4): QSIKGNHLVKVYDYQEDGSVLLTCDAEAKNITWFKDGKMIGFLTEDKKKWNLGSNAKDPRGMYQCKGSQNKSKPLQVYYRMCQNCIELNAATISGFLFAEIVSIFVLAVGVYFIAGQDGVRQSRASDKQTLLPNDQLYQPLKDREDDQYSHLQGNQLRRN
T1 sequence (P04234 22-171, chain 3 of 4): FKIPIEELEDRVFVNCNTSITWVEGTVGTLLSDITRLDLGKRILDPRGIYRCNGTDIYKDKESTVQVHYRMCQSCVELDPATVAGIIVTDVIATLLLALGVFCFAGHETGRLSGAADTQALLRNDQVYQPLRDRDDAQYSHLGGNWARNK
T1 sequence (P20963 22-164, chain 4 of 4): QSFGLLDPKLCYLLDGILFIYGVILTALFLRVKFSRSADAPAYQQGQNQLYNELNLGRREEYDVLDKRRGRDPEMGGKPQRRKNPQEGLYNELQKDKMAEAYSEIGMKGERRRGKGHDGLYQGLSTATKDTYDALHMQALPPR

Binder	EC50 (human CD3 [1]) [nM]	fold increase in the EC50 of binding compared to TSC312 (human CD3 [1]) [fold]	fold higher EC50 than TSC312 (human CD3 [2]) [fold]
Fc H10L5 (TSC324) (Fc fusion, Fc anti-CD3 scFv format with H75 linker; The entry is the mature protein) EPKSSDKTHTCPPCPAPEAAGAPSVFLFPPKPKDTLMISRTPEVTCVVVDVSHEDPEVKFNWYVDGVEVHNAKTKPREEQYNSTYRVVSVLTVLHQDWLNGKAYACAVSNKALPAPIEKTISKAKGQPREPQVYTLPPSRDELTKNQVSLTCLVKGFYPSDIAVEWESNGQPENNYKTTPPVLDSDGSFFLYSKLTVDKSRWQQGNVFSCSVMHEALHNHYTQKSLSLSPGQRHNNSSLNTGTQMAGHSPNSQVQLVQSGAEVKKPGSSVKVSCKASGGTFSRSTMHWVRQAPGQGLEWMGYINPSSAYTNYNQKFKDRVTITADKSTSTAYMELSSLRSEDTAVYYCARPQVHYDYNGFPYWGQGTLVTVSSGGGGSGGGGSGGGGSGGGGSDIQMTQSPSSLSASVGDRVTITCSASSSVSYMNWYQQKPGKAPKLLIYDSSKLASGVPSRFSGSGSGTDFTLTISSLQPEDFATYYCQQWSRNPPTFGGGTKVEIKRSSS	3.6	2	
Fc H10L6 (TSC340) (Fc fusion, Fc anti-CD3 scFv format; The entry is the mature protein) EPKSSDKTHTCPPCPAPEAAGAPSVFLFPPKPKDTLMISRTPEVTCVVVDVSHEDPEVKFNWYVDGVEVHNAKTKPREEQYNSTYRVVSVLTVLHQDWLNGKAYACAVSNKALPAPIEKTISKAKGQPREPQVYTLPPSRDELTKNQVSLTCLVKGFYPSDIAVEWESNGQPENNYKTTPPVLDSDGSFFLYSKLTVDKSRWQQGNVFSCSVMHEALHNHYTQKSLSLSPGQRHNNSSLNTGTQMAGHSPNSQVQLVQSGAEVKKPGSSVKVSCKASGGTFSRSTMHWVRQAPGQGLEWMGYINPSSAYTNYNQKFKDRVTITADKSTSTAYMELSSLRSEDTAVYYCARPQVHYDYNGFPYWGQGTLVTVSSGGGGSGGGGSGGGGSGGGGSDIQMTQSPSSLSASVGDRVTITCSASSSVSYMNWYQQKPGKAPKRWIYDSSKLASGVPSRFSGSGSGTDFTLTISSLQPEDFATYYCQQWSRNPPTFGGGTKVEIKRSSS			2

Now from value to binder:

EC50 (human CD3 [1]) [nM]	fold increase in the EC50 of binding compared to TSC312 (human CD3 [1]) [fold]	fold higher EC50 than TSC312 (human CD3 [2]) [fold]	Binder
		2	Fc H10L8 (TSC342) (Fc fusion, Fc anti-CD3 scFv format; The entry is the mature protein) EPKSSDKTHTCPPCPAPEAAGAPSVFLFPPKPKDTLMISRTPEVTCVVVDVSHEDPEVKFNWYVDGVEVHNAKTKPREEQYNSTYRVVSVLTVLHQDWLNGKAYACAVSNKALPAPIEKTISKAKGQPREPQVYTLPPSRDELTKNQVSLTCLVKGFYPSDIAVEWESNGQPENNYKTTPPVLDSDGSFFLYSKLTVDKSRWQQGNVFSCSVMHEALHNHYTQKSLSLSPGQRHNNSSLNTGTQMAGHSPNSQVQLVQSGAEVKKPGSSVKVSCKASGGTFSRSTMHWVRQAPGQGLEWMGYINPSSAYTNYNQKFKDRVTITADKSTSTAYMELSSLRSEDTAVYYCARPQVHYDYNGFPYWGQGTLVTVSSGGGGSGGGGSGGGGSGGGGSDIQMTQSPSTLSASVGDRVTITCSASSSVSYMNWYQQKPGKAPKRWIYDSSKLASGVPSRFSGSGSGTEFTLTISSLQPDDFATYYCQQWSRNPPTFGGGTKVEIKRSSS
		2	Fc H10L7 (TSC341) (Fc fusion, Fc anti-CD3 scFv format; The entry is the mature protein) EPKSSDKTHTCPPCPAPEAAGAPSVFLFPPKPKDTLMISRTPEVTCVVVDVSHEDPEVKFNWYVDGVEVHNAKTKPREEQYNSTYRVVSVLTVLHQDWLNGKAYACAVSNKALPAPIEKTISKAKGQPREPQVYTLPPSRDELTKNQVSLTCLVKGFYPSDIAVEWESNGQPENNYKTTPPVLDSDGSFFLYSKLTVDKSRWQQGNVFSCSVMHEALHNHYTQKSLSLSPGQRHNNSSLNTGTQMAGHSPNSQVQLVQSGAEVKKPGSSVKVSCKASGGTFSRSTMHWVRQAPGQGLEWMGYINPSSAYTNYNQKFKDRVTITADKSTSTAYMELSSLRSEDTAVYYCARPQVHYDYNGFPYWGQGTLVTVSSGGGGSGGGGSGGGGSGGGGSEIVLTQSPATLSLSPGERATLSCSASSSVSYMNWYQQKPGLAPRRWIYDSSKLASGIPDRFSGSGSGTDFTLTISRLEPEDFAVYYCQQWSRNPPTFGGGTKVEIKRSSS
